Experimental data: patent US20230391886A1

Molecular target: MUC18 (target of JM1-24-3 as used in Bio-Layer Interferometry) (Homo sapiens (Human)) (UniProt P43121)
Test: Bio-Layer Interferometry, Octet RED384

B1: JM1-24-3 (antibody, V domains shown)
VH: MSCKASGYAFTSYWMNWIKERPGQGLEWIGAIDPFNGYTEYNHKFKDKAILTADNSSSTVYMQLSSLTSEDSAVYYCARWGGRLYFDYWGQGTTLTVSS
VL: MTQSPSSMYASLGERVTITCKASQDINSFLSWFQQKPGKSPKTLIYRANRLVDGVPSRFSGSGSGQDYSLTISSLEYEDMGIYYCLQYDEFPYTFGGGTKLEIKR
Kd: 1.6 nM
